Measurements from US20160237143A1 (OSTERREICHISCHE AKADEMIE DER WISSENSCHAFTEN, published 2016).

Columns and labels:
[1] = target: T1, HPV 16 E7 derived synthetic 13mer peptide 43 (amino acids 85 to 97) (human papillomavirus type 16); assay: peptide microarray, anti-rabbit-Cy5
T1 construct: Immobilised on a peptide microarray
T1 peptide: GTLGIVCPICSQK

[2] = target: T2, HPV 16 E7 derived synthetic 13mer peptide 44 (amino acids 86 to 98) (human papillomavirus type 16); assay: peptide microarray, anti-rabbit-Cy5
T2 construct: Immobilised on a peptide microarray
T2 peptide: TLGIVCPICSQKP

HPV 11 E7 protein = target: T3, HPV 11 E7 protein (human papillomavirus type 11, UniProt P04020 1-98); assay: direct ELISA, coated recombinant E7, biotinylated antibody
T3 construct: also called low-risk HPV type 11 E7
T3 sequence: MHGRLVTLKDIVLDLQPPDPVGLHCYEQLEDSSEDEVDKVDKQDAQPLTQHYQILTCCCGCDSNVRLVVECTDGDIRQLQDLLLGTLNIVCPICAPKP

HPV 18 E7 protein = target: T4, HPV 18 E7 protein (human papillomavirus type 18, UniProt P06788 1-105); assay: confocal immunofluorescence on U-2OS cells overexpressing E7
T4 construct: also called E7 protein of HPV 18
T4 sequence: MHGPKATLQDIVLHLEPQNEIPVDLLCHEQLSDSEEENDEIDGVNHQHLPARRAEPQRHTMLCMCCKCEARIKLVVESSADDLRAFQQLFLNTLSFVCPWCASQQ

HPV 45 E7 protein = target: T5, HPV 45 E7 protein (human papillomavirus type 45, UniProt P21736 1-106); assay: as above
T5 construct: also called E7 protein of HPV 45
T5 sequence: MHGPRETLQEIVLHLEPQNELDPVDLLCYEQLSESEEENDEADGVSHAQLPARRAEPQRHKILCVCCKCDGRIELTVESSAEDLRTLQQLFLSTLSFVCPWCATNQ

HPV 16 E7 mutant C58G = target: T6, HPV 16 E7 mutant C58G (human papillomavirus type 16, UniProt P03129 1-98); assay: indirect immunofluorescence on transiently transfected U-2OS cells
T6 sequence: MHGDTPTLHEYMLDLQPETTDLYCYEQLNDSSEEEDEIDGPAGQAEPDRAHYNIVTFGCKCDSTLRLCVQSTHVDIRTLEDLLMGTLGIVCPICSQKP

HPV 16 E7 mutant C91G = target: T7, HPV 16 E7 mutant C91G (human papillomavirus type 16, UniProt P03129 1-98); assay: as above
T7 sequence: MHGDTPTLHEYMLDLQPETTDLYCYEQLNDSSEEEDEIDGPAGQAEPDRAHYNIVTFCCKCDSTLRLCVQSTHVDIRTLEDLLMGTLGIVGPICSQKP

[3] = target: T8, HPV 16 E7 mutant C58G/C91G (human papillomavirus type 16, UniProt P03129 1-98); assay: as above
T8 sequence: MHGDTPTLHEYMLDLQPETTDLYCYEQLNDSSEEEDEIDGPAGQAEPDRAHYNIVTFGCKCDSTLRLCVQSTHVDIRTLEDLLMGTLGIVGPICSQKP

B1: monoclonal anti-HPV 16 E7 antibody of the present invention (rabbit monoclonal, hybridoma Klon 42-3-78, DSM ACC3034) (antibody, V domains shown)
VH: QSLEESGGRLVTPGGSLTLTCTVSGIDLSTYEISWVRQAPGKGLEWIGIIGTSANTVYASWAKGRFTISKSSTTVDLRVTSLTTEDTATYFCARAYDEYGIHAFHPWGPGTLVTVSS
VL: AQVLTQTPSPVSAAVGGTVTINCQASQSVYNAKNLAWYQQKPGQPPKLLIYQASTLASGVPSRFKGSGSGTQFTLTISGVQCDDAATYYCQGEFSCSSADCNVFGGGTEVVVKG
notes: Rabbit IgG purified from hybridoma supernatant on Protein G; used plain or biotinylated; also called monoclonal antibody against HPV 16 E7; RabMab
**Q.** Does B1 bind [1]?
**A.** binds

**Q.** Does B1 bind [2]?
**A.** binds

**Q.** Does B1 bind (HPV 11 E7 protein)?
**A.** no binding (tested: 2.5 and 10 ng coated E7 protein)

**Q.** Does B1 bind (HPV 18 E7 protein)?
**A.** no binding (tested: 25 µg/ml)

**Q.** Does B1 bind (HPV 45 E7 protein)?
**A.** no binding (tested: 25 µg/ml)

**Q.** Does B1 bind (HPV 16 E7 mutant C58G)?
**A.** no binding

**Q.** Does B1 bind (HPV 16 E7 mutant C91G)?
**A.** no binding

**Q.** Does B1 bind [3]?
**A.** no binding
